# Results taken from the supplement of paper PMC9112550, “Optimization of the antimicrobial peptide Bac7 by deep mutational scanning” (BMC Biology, 2022).
# Tested on: Escherichia coli TOP10
# Assay: shrunken log2 fold change of peptide-encoding DNA abundance (4.5 h post-induction vs induction); higher = less antimicrobial activity (less host growth inhibition)
# Conditions: time post-induction: 4.5 h; library: site-saturation at positions 5, 18, 19, 20
# 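Also: peptides expressed intracellularly from a pBAD plasmid library in pooled LB shake-flask culture, induced with 0.3% L-arabinose, DNA abundance read by NGS, three biological replicates, DESeq2 with apeglm shrinkage.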
row,Sequence,shrunken log2 fold change
1,RRIRHRPPRLPRPRPRPMRTPRP,-0.11
2,RRIRGRPPRLPRPRPRPCQIPRP,-0.0259
3,RRIRVRPPRLPRPRPRPIVRPRP,-0.0635
4,RRIRTRPPRLPRPRPRPFGEPRP,-0.101
5,RRIRIRPPRLPRPRPRPVGMPRP,0.0752
6,RRIRHRPPRLPRPRPRPHIDPRP,-0.241
7,RRIRDRPPRLPRPRPRPGFRPRP,0.248
8,RRIRMRPPRLPRPRPRPMISPRP,-0.0256
9,RRIRLRPPRLPRPRPRPDFTPRP,0.102
10,RRIRVRPPRLPRPRPRPNGIPRP,-0.161
11,RRIRSRPPRLPRPRPRPIWPPRP,0.0426
12,RRIRIRPPRLPRPRPRPFLMPRP,-0.314
13,RRIRARPPRLPRPRPRPCISPRP,0.0706
14,RRIRSRPPRLPRPRPRPWYPPRP,-0.301
15,RRIRCRPPRLPRPRPRPSTFPRP,-0.714
16,RRIRSRPPRLPRPRPRPCMDPRP,-0.0717
17,RRIRPRPPRLPRPRPRPDSSPRP,-0.000765
18,RRIRNRPPRLPRPRPRPPHQPRP,0.0134
19,RRIRCRPPRLPRPRPRPYLWPRP,-0.726
20,RRIRTRPPRLPRPRPRPQLLPRP,0.0259

row,Sequence,shrunken log2 fold change
1,RRIRERPPRLPRPRPRPSMEPRP,-0.14
2,RRIRMRPPRLPRPRPRPKINPRP,-0.194
3,RRIRPRPPRLPRPRPRPASFPRP,0.0681
4,RRIRPRPPRLPRPRPRPGLGPRP,0.389
5,RRIRYRPPRLPRPRPRPDHTPRP,-0.11
6,RRIRGRPPRLPRPRPRPFVVPRP,0.222
7,RRIRVRPPRLPRPRPRPLQCPRP,-0.371
8,RRIRFRPPRLPRPRPRPQNSPRP,-0.568
9,RRIRGRPPRLPRPRPRPDVQPRP,1.69
10,RRIRCRPPRLPRPRPRPHITPRP,-0.704
11,RRIRSRPPRLPRPRPRPHHCPRP,-0.0623
12,RRIRHRPPRLPRPRPRPTTHPRP,0.0467
13,RRIRRRPPRLPRPRPRPDNSPRP,-0.078
14,RRIRDRPPRLPRPRPRPEGTPRP,-0.042
15,RRIRDRPPRLPRPRPRPAVGPRP,0.148
16,RRIRIRPPRLPRPRPRPDIWPRP,-0.324
17,RRIRYRPPRLPRPRPRPENRPRP,0.0112
18,RRIRVRPPRLPRPRPRPQMTPRP,-0.0158
19,RRIRLRPPRLPRPRPRPPGLPRP,0.149
20,RRIRWRPPRLPRPRPRPQFSPRP,0.053

row,Sequence,shrunken log2 fold change
1,RRIRNRPPRLPRPRPRPKSFPRP,-0.00133
2,RRIRCRPPRLPRPRPRPMLVPRP,-0.144
3,RRIRNRPPRLPRPRPRPCRIPRP,-0.134
4,RRIRPRPPRLPRPRPRPHGPPRP,0.0292
5,RRIRDRPPRLPRPRPRPNWLPRP,0.0018
6,RRIRRRPPRLPRPRPRPHIIPRP,-0.259
7,RRIRIRPPRLPRPRPRPKAPPRP,-0.0151
8,RRIRPRPPRLPRPRPRPEYFPRP,-0.185
9,RRIRMRPPRLPRPRPRPADPPRP,0.36
10,RRIRGRPPRLPRPRPRPHGWPRP,0.161
11,RRIRWRPPRLPRPRPRPVWEPRP,0.912
12,RRIRKRPPRLPRPRPRPEMRPRP,0.105
13,RRIRCRPPRLPRPRPRPRANPRP,0.255
14,RRIRLRPPRLPRPRPRPSLIPRP,-0.217
15,RRIRYRPPRLPRPRPRPFHKPRP,-0.0655
16,RRIRNRPPRLPRPRPRPEEIPRP,-0.000921
17,RRIRYRPPRLPRPRPRPSDTPRP,-1.27
18,RRIRTRPPRLPRPRPRPRQYPRP,-0.302
19,RRIRPRPPRLPRPRPRPIKMPRP,0.0328
20,RRIRHRPPRLPRPRPRPIHSPRP,0.0202
